Measured values published in article PMC8563995, “CCA-addition in the cold: Structural characterization of the psychrophilic CCA-adding enzyme from the permafrost bacterium Planococcus halocryophilus” (Computational and Structural Biotechnology Journal, 2021).

System: GstCCA (CCA-adding enzyme, tRNA nucleotidyltransferase) (Geobacillus stearothermophilus)
Assay: EMSA
Conditions: 10 mM MgCl2; 37 °C; EMSA: 50 mM glycine/NaOH pH 8.5, 10 mM MgCl2, 2 mM DTT, 0.3 pmol tRNA, 0-5 µM enzyme, 10 min at 37 °C (GstCCA) or 4 °C and 30 °C (PhaCCA); 5% native PAGE at …

## yeast tRNAPhe lacking the CCA terminus
  Kd: 1300 nM
